{"source": "patent US20240342244A1", "about": "“Isthmin Protein Therapeutics for the Treatment of Non-Alcoholic Fatty Liver Disease” (The Board of Trustees of the Leland Stanford Junior …, priority 2021, published 2024)", "molecules": {"B1": {"name": "ISM1: recombinant mouse ISM1 protein with a C-terminal myc-his tag generated in mammalian HEK 293 Expi cells (protein, UniProt A2ATD1 30-454, looked up)", "Isthmin-1": "SDRQDAAAGNNNLNLESDSTSETSFPLSKEAPEEHQVVHQPFPRQRFPPETGHPSLQRDGPRSFLLDLPNFPDLSKADINGQNPNIQVTIEVVDGPDSEAEKDQHPENKPSWSLPAPDWRAWWQRSLSLARTNSGDQDDKYDSTSDDSNFLSVPRGWDRPAPGHRTFETKEQPEYDSTDGEGDWSLWSVCSVTCGNGNQKRTRSCGYACIATESRTCDRPNCPGIEDTFRTAATEVSLLAGSEEFNATKLFEVDMDSCERWMSCKSEFLKKYMHKVINDLPSCPCSYPTEVAYSTADIFDRIKRKDFRWKDASGPKEKLEIYKPTARYCIRSMLSLESTTLAAQHCCYGDNMQLITRGKGAGTPNLISTEFSAELHYKVDVLPWIICKGDWSRYNEARPPNNGQKCTESPSDEDYIKQFQEAREY", "modifications": "C-terminal myc-His tag", "notes": "recombinant mouse ISM1 protein with a C-terminal myc-his tag generated in mammalian HEK 293 Expi cells"}}, "key": {"[1]": {"test_system": "primary mouse adipocytes", "test": "2-deoxy-3H-glucose uptake in primary mouse adipocytes", "type": "cell-based", "protocol": "Mouse and human pre-adipocytes culture and differentiation. Inguinal fat pads from 4-8 week old C57BL/6J male and female mice were dissected and mechanically digested for 10 min using spring scissors. Digested tissues were incubated in WAT isolation buffer (10 ml PBS, 2.4 U/ml dispase II (#04942078001, Roche), 10 mg/ml collagenase D (#11088858001, Roche) at 37° C. for 45 min. 20 mL growth media was added and the tissue suspension was filtered through a 100-μm cell strainer and centrifuged at 600×g for 5 min. The cell pellets were resuspended in 20 mL growth media, filtered through a 40-μm cell strainer, centrifuged at 600×g for 5 min, resuspended in 10 mL growth media, and plated in 10-cm collagen-coated dishes. The cells were cultured in growth media (DMEM/F-12 Glutamax, Thermo Fisher Scientific #10565018) supplemented with 10% fetal bovine serum. Two days post-confluency, differentiation was induced with growth media containing 1 μM rosiglitazone, 0.5 mM isobutylmethylxanthine, 1 μM dexamethasone, 5 μg/mL insulin. After two days, cells were re-fed with growth media containing 1 μM rosiglitazone and 5 μg/mL insulin. Cells were fully differentiated after 6-8 days. For ISM1 knockdown or overexpression in primary adipocytes using adenovirus, 500 μL crude virus was mixed with 500 μL fresh growth media containing 1 μM rosiglitazone and 5 μg/mL insulin was added to each well at day 2 of differentiation. At day 4, virus-containing media was removed and 500 μL fresh growth media without stimulators was added to each well. SGBS cells were differentiated as described previously (Fischer-Posovszky et al., 2008; Wabitsch et al., 2001). Briefly, cells were cultured in growth media DMEM/F-12 Glutamax, supplemented with 10% fetal bovine serum, 33 uM biotin, and 17 uM pantothenate. Two days post confluency, differentiation was induced with serum-free DMEM/F12 media containing 33 uM biotin, 17 uM pantothenate, 0.01 mg/ml transferrin, 20 nM insulin, 100 nM cortisol, 0.2 nM triiodothyronine, 25 nM dexamethasone, 0.25 mM isobutyl methylxanthine, and 2 μM rosiglitazone. After four days, cells were re-fed with growth media containing 0.01 mg/ml transferrin 20 nM insulin, 100 nM cortisol, 0.2 nM triiodothyronine. Cells were fully differentiated after day 8-10.\nGlucose uptake. Glucose uptake was performed as previously described (You et al., 2017). Briefly, 2-Deoxy-d-[2,6-3H]-glucose was purchased from PerkinElmer NEN radiochemicals. Fully differentiated adipocytes were washed with KRH buffer and starved in 0.5% BSA in KRH buffer for 4 h. Indicated concentrations of insulin or ISM1 were added at indicated time points. Cells were treated with a mixture of 500 μM 2-deoxy-D-glucose and 1.71 μCimL^−1 2-Deoxy-D-[1,2-3H (N)]-glucose for another 10 min followed by three washes using ice cold KRH buffer containing 200 mM glucose. The passive glucose uptake in the presence of 50 uM CytoB was less than 12% of the total glucose uptake. Cells were solubilized in 1% SDS and radioactivity was measured by liquid scintillation counting."}, "[2]": {"test_system": "human primary skeletal muscle cells", "test": "2-deoxy-3H-glucose uptake in human primary skeletal muscle cells", "type": "cell-based", "details": "for induction of glucose uptake compared with control cells: 1 h"}, "[3]": {"test": "Pharmacokinetic measurement of ISM1 blood levels (anti-his ELISA, western blot)", "type": "in vivo, mouse", "details": "mice", "protocol": "Pharmacokinetic measurements of ISM1 blood levels following ISM1 administration. An anti-his tag ELISA was performed to measure ISM1-his concentrations in blood. Recombinant ISM1 protein was administered at 10 mg/kg I.V. in a total volume of 100 ul. Blood was collected and centrifuged at 6000×g for 10 minutes at room temperature to collect serum. Blood levels were measured using the HisProbe-HRP Conjugate according to the manufacturer's instructions (Thermo #15165). Briefly, samples were prepared by diluting serum in coating buffer at 1:100 ratio and added to wells for overnight incubation at 4° C. Nonspecific binding was blocked by adding blocking buffer and incubating for 30 min at 37° C. The plate was washed three times with wash buffer. HisProbe-HRP (Thermo, #15165) working solution was added to each well. After 15 min incubation at room temperature, the plate was washed four times with wash buffer, followed by adding substrate (Thermo, #34022). After 10 min, 1N sulfuric acid was added to stop the reaction. Absorbance was measured at 450 nm."}, "[4]": {"test_system": "DIO mice", "test": "Therapeutic ISM1, Metformin or combined administration for 21 days in DIO mice", "type": "in vivo, mouse", "details": "daily for 21 days; compared with vehicle", "protocol": "Therapeutic ISM1 recombinant protein administration in vivo. All pharmacologic studies using recombinant ISM1 protein were performed in mice with established diet-induced obesity or non-alcoholic fatty liver disease (NAFLD). For all experiments, male C57BL/6J mice purchased from Jax were fed either a high-fat diet (#D12492, Research Diets) or a NAFLD diet (#D09100310, Research Diets) prior to ISM1 protein injections. In all experiments, mice were mock injected with saline for three days prior to protein or drug injections to prevent stress-induced weight loss. Mice were I.P. injected with vehicle (saline) or indicated doses of ISM1 protein diluted in saline. For the 14-day experiments in NAFLD mice, 7-weeks old mice were fed with NAFLD diet for 3 weeks and then mock injected with saline for 3 days prior to protein injections. The induction of lipid accumulation with NAFLD diet was verified by the significant increase in hepatic lipid levels compared with mice on chow diet at the same time point. NAFLD mice were then daily I.P. injected with either vehicle (saline containing 5% DMSO and 10% Kolliphor) or indicated doses of ISM1 protein (500 μg/kg or 5 mg/kg) or with FXR agonist (30 mg/kg, GW4064, Sigma-Aldrich, #G5172) diluted in vehicle (saline containing 5% DMSO and 10% Kolliphor). For the 21-day experiments in HFD mice, mice were mock injected with saline for three days prior to protein injections. Mice were then daily I.P. injected with either vehicle (saline) or 5 mg/kg of ISM1 protein diluted in saline. Metformin (100 mg/kg, Sigma, #317240) was diluted in saline and daily administered by oral gavage. All groups received control injections by I.P. and oral gavage. At the end of the experiments, mice and tissue weights were recorded. Tissues and plasma were collected and frozen for further analyses.\nGlucose tolerance and insulin tolerance tests. For glucose tolerance tests, mice were fasted overnight and I.P. injected with glucose at 2 g/kg body weight. Blood glucose levels were measured at 0, 15, 30, 45, 60, 90 and 120 mins. For insulin tolerance tests, mice were fasted for 2 h, and I.P. injected with 0.75 U/kg insulin. Blood glucose levels were measured at 0, 15, 30, 45, 60, 90 and 120 mins."}, "[5]": {"test": "Observation of hypoglycemia in overexpression or pharmacological administration studies", "type": "in vivo, mouse", "details": "overexpression or pharmacological administration of ISM1"}}, "data": [{"molecule": "B1", "values": [{"measurement": "glucose uptake when added to insulin", "setting": "[1]; 100 nM ISM1 in cells treated with 50 nM insulin, 1 h", "value": "further increased insulin-induced uptake"}, {"measurement": "increase in glucose uptake", "setting": "[1]; 100 nM, absence of insulin, across multiple experiments", "value": "around 1.5 fold"}, {"measurement": "desensitization of glucose uptake on prolonged treatment", "setting": "[1]; 24 h vs 4 h protein treatment, 100 nM", "value": "does not lead to desensitization"}, {"measurement": "effect on glucose uptake relative to that of insulin", "setting": "[1]; primary mouse adipocytes", "value": "< 50", "unit": "%"}, {"measurement": "induction of glucose uptake compared with control cells", "setting": "[2]; 50 nM", "value": 5, "unit": "fold"}, {"measurement": "induction of glucose uptake compared with control cells", "setting": "[2]; 200 nM", "value": 7, "unit": "fold"}, {"measurement": "effect on glucose uptake relative to that of insulin", "setting": "[2]; human skeletal muscle cells", "value": 70, "unit": "%"}, {"measurement": "half-life in the blood", "setting": "[3]; 10 mg/kg I.V., serum, anti-his ELISA", "value": "approximately 70 minutes"}, {"measurement": "protein integrity in plasma (western blot)", "setting": "[3]; after I.V. administration", "value": "no observed protein degradation or cleavage"}, {"measurement": "fasting blood glucose", "setting": "[4]", "value": "lower"}, {"measurement": "glucose tolerance (GTT)", "setting": "[4]", "value": "comparable effects on improving glucose tolerance"}, {"measurement": "hypoglycemia", "setting": "[5]", "value": "do not observe hypoglycemia"}]}]}
